{
  "source": "patent US20220259593A1",
  "about": "“CONTROL OF MAMMALIAN GENE DOSAGE USING CRISPR” (The Regents of the University of California, priority 2019, published 2022)",
  "molecules": {"B1": {"name": "cr664 (nucleic acid)", "guide": "GTTTAAGAGCTAAGCTGGAAACAGCATAGCAACCTTAAATAAGGCTAGTCCGTTATCAACTTGAAAAAGTGGCACCGAGTCGGTGCT", "modifications": "listed as DNA, chemistry not fully specified"}, "B2": {"name": "cr778 (nucleic acid)", "guide": "B1 guide with C33G, C34T, C51G", "modifications": "listed as DNA, chemistry not fully specified"}, "B3": {"name": "cr174 (nucleic acid)", "guide": "B1 guide with G29C, C33G, C34T, T49G, G79T", "modifications": "listed as DNA, chemistry not fully specified"}, "B4": {"name": "cr744 (nucleic acid)", "guide": "B1 guide with C33G, C34A, A41C, A64T", "modifications": "listed as DNA, chemistry not fully specified"}, "B5": {"name": "cr092 (nucleic acid)", "guide": "B1 guide with T3G, A6G, C33G, C34T", "modifications": "listed as DNA, chemistry not fully specified"}, "B6": {"name": "cr100 (nucleic acid)", "guide": "B1 guide with C33G, C34T, A41G, T49C", "modifications": "listed as DNA, chemistry not fully specified"}, "B7": {"name": "cr499 (nucleic acid)", "guide": "B1 guide with C34T, T53A, T80G", "modifications": "listed as DNA, chemistry not fully specified"}, "B8": {"name": "cr512 (nucleic acid)", "guide": "B1 guide with C33G, C34G, G44C, C50G", "modifications": "listed as DNA, chemistry not fully specified"}, "B9": {"name": "cr339 (nucleic acid)", "guide": "B1 guide with C33G, C34T, G43C, G44C, C50G, C51G", "modifications": "listed as DNA, chemistry not fully specified"}, "B10": {"name": "cr272 (nucleic acid)", "guide": "B1 guide with A31C, C34T", "modifications": "listed as DNA, chemistry not fully specified"}, "B11": {"name": "cr615 (nucleic acid)", "guide": "B1 guide with C33G, C34T, G72C, C73G, A74T, C75G, T84A, C86G", "modifications": "listed as DNA, chemistry not fully specified"}, "B12": {"name": "cr883 (nucleic acid)", "guide": "B1 guide with C33G, C34T, A42G, C51G", "modifications": "listed as DNA, chemistry not fully specified"}, "B13": {"name": "cr584 (nucleic acid)", "guide": "B1 guide with C33G, C34T, A42T, G52T", "modifications": "listed as DNA, chemistry not fully specified"}, "B14": {"name": "cr247 (nucleic acid)", "guide": "B1 guide with C33T, C34T, G71A", "modifications": "listed as DNA, chemistry not fully specified"}, "B15": {"name": "cr463 (nucleic acid)", "guide": "B1 guide with C33G, C34T, G43C, C51G, A59C, T70G, G77T, C81A", "modifications": "listed as DNA, chemistry not fully specified"}, "B16": {"name": "cr518 (nucleic acid)", "guide": "B1 guide with C33T, C34T, A41G", "modifications": "listed as DNA, chemistry not fully specified"}, "B17": {"name": "cr967 (nucleic acid)", "guide": "B1 guide with C33G, C34T, G43C, C51G, C73A, G77A, C81T, G85T", "modifications": "listed as DNA, chemistry not fully specified"}, "B18": {"name": "cr376 (nucleic acid)", "guide": "B1 guide with C34T, C76G, G82C", "modifications": "listed as DNA, chemistry not fully specified"}, "B19": {"name": "cr706 (nucleic acid)", "guide": "B1 guide with C33G, C34G, C76G, G82C", "modifications": "listed as DNA, chemistry not fully specified"}, "B20": {"name": "cr281 (nucleic acid)", "guide": "B1 guide with C33G, C34T, A74T, C75G, C76G, G77C, G82C, T84A", "modifications": "listed as DNA, chemistry not fully specified"}, "B21": {"name": "cr415 (nucleic acid)", "guide": "B1 guide with C33G, C34T, G52C, A67T", "modifications": "listed as DNA, chemistry not fully specified"}, "B22": {"name": "cr833 (nucleic acid)", "guide": "B1 guide with A28C, C34T, G71C", "modifications": "listed as DNA, chemistry not fully specified"}, "B23": {"name": "cr845 (nucleic acid)", "guide": "B1 guide with C33G, C34G, G43A, C51T", "modifications": "listed as DNA, chemistry not fully specified"}, "B24": {"name": "cr857 (nucleic acid)", "guide": "B1 guide with C33G, C34T, A41T, G71C, T80C", "modifications": "listed as DNA, chemistry not fully specified"}, "B25": {"name": "cr400 (nucleic acid)", "guide": "B1 guide with C33G, C34G, C45A, G48T", "modifications": "listed as DNA, chemistry not fully specified"}, "B26": {"name": "cr266 (nucleic acid)", "guide": "B1 guide with A28G, C33G, C34G, T46G", "modifications": "listed as DNA, chemistry not fully specified"}, "B27": {"name": "cr537 (nucleic acid)", "guide": "B1 guide with C33G, A41T", "modifications": "listed as DNA, chemistry not fully specified"}, "B28": {"name": "cr309 (nucleic acid)", "guide": "B1 guide with C33G, C34G, T49G", "modifications": "listed as DNA, chemistry not fully specified"}, "B29": {"name": "cr203 (nucleic acid)", "guide": "B1 guide with C34T, G52T", "modifications": "listed as DNA, chemistry not fully specified"}, "B30": {"name": "cr060 (nucleic acid)", "guide": "B1 guide with T3G, T4C, C33G, C34T", "modifications": "listed as DNA, chemistry not fully specified"}, "B31": {"name": "cr849 (nucleic acid)", "guide": "B1 guide with C34G", "modifications": "listed as DNA, chemistry not fully specified"}, "B32": {"name": "cr297 (nucleic acid)", "guide": "B1 guide with C33G, C34T, T49G, G71C", "modifications": "listed as DNA, chemistry not fully specified"}, "B33": {"name": "cr094 (nucleic acid)", "guide": "B1 guide with T2A, A5T, C33G, C34T", "modifications": "listed as DNA, chemistry not fully specified"}, "B34": {"name": "cr057 (nucleic acid)", "guide": "B1 guide with T2C, T4C, C33G, C34T", "modifications": "listed as DNA, chemistry not fully specified"}, "B35": {"name": "cr753 (nucleic acid)", "guide": "B1 guide with C33G, C34T, G43C, C51G, A59T, T70A, C73A, G85T", "modifications": "listed as DNA, chemistry not fully specified"}, "B36": {"name": "cr902 (nucleic acid)", "guide": "B1 guide with C33G, C34T, G72A, C86T", "modifications": "listed as DNA, chemistry not fully specified"}, "B37": {"name": "cr660 (nucleic acid)", "guide": "B1 guide with C33G, C34T, G43T", "modifications": "listed as DNA, chemistry not fully specified"}, "B38": {"name": "cr352 (nucleic acid)", "guide": "B1 guide with C33G, C34T, A59C", "modifications": "listed as DNA, chemistry not fully specified"}, "B39": {"name": "cr109 (nucleic acid)", "guide": "B1 guide with C33G, C34T, T61A, T62A, A67T, A68T", "modifications": "listed as DNA, chemistry not fully specified"}, "B40": {"name": "cr472 (nucleic acid)", "guide": "B1 guide with C33G, C34G, C45T, G48A", "modifications": "listed as DNA, chemistry not fully specified"}},
  "note": "Where a chain is given by its changes, count along the chain named.",
  "data": [
    {"tested_on": "K562 CRISPRi cells", "assay": "Constant region variant library pooled growth screen, K562", "assay_type": "cell-based, human", "conditions": "sgRNA constant region variant; activity relative to unmodified constant region cr995; mean CRISPRi activity", "method_in_brief": "(§1)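 Pooled library transduced into K562 CRISPRi cells in duplicate, puromycin-selected, grown at >2000× coverage and sampled after 4 to 8 days. Phenotypes per targeting sequence:constant region pair were normalized to the unmodified-scaffold pairing to give relative activity.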", "values": [
      {"molecule": "B1", "Mean relative activity": 0.007435},
      {"molecule": "B2", "Mean relative activity": 0.0072},
      {"molecule": "B3", "Mean relative activity": 0.006669},
      {"molecule": "B4", "Mean relative activity": 0.006349},
      {"molecule": "B5", "Mean relative activity": 0.006875},
      {"molecule": "B6", "Mean relative activity": 0.005923},
      {"molecule": "B7", "Mean relative activity": 0.007257},
      {"molecule": "B8", "Mean relative activity": 0.007414},
      {"molecule": "B9", "Mean relative activity": 0.00717},
      {"molecule": "B10", "Mean relative activity": 0.00638},
      {"molecule": "B11", "Mean relative activity": 0.006333},
      {"molecule": "B12", "Mean relative activity": 0.006975},
      {"molecule": "B13", "Mean relative activity": 0.005912},
      {"molecule": "B14", "Mean relative activity": 0.007159},
      {"molecule": "B15", "Mean relative activity": 0.006799},
      {"molecule": "B16", "Mean relative activity": 0.006889},
      {"molecule": "B17", "Mean relative activity": 0.006446},
      {"molecule": "B18", "Mean relative activity": 0.006963},
      {"molecule": "B19", "Mean relative activity": 0.006595},
      {"molecule": "B20", "Mean relative activity": 0.006802},
      {"molecule": "B21", "Mean relative activity": 0.007281}
    ]},
    {"tested_on": "K562 CRISPRi cells", "assay": "Constant region variant library pooled growth screen, K562", "assay_type": "cell-based, human", "conditions": "sgRNA constant region variants; activity relative to the original, un-modified constant region cr995", "method_in_brief": "as §1", "values": [
      {"molecule": "B22", "Mean relative activity": 0.004215},
      {"molecule": "B23", "Mean relative activity": 0.004644},
      {"molecule": "B24", "Mean relative activity": 0.004274},
      {"molecule": "B25", "Mean relative activity": 0.00451},
      {"molecule": "B26", "Mean relative activity": 0.005552},
      {"molecule": "B27", "Mean relative activity": 0.005276},
      {"molecule": "B28", "Mean relative activity": 0.005045},
      {"molecule": "B29", "Mean relative activity": 0.004333},
      {"molecule": "B30", "Mean relative activity": 0.005182},
      {"molecule": "B31", "Mean relative activity": 0.004706},
      {"molecule": "B32", "Mean relative activity": 0.004872},
      {"molecule": "B33", "Mean relative activity": 0.004414},
      {"molecule": "B34", "Mean relative activity": 0.005757},
      {"molecule": "B35", "Mean relative activity": 0.004302},
      {"molecule": "B36", "Mean relative activity": 1.031},
      {"molecule": "B37", "Mean relative activity": 0.004102},
      {"molecule": "B38", "Mean relative activity": 1.031},
      {"molecule": "B39", "Mean relative activity": 1.031},
      {"molecule": "B40", "Mean relative activity": 0.004917}
    ]}
  ]
}
